Substitutions are numbered along the chain they refer to. Names may count otherwise.
Target: human acyl ghrelin, Q9UBU3
Sequence (Q9UBU3 whole entry, looked up): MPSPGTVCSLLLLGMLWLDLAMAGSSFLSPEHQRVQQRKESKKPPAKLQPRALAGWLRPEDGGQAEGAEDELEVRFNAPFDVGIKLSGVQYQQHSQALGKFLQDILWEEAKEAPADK

B1: A199S/S227A/S287G/A328W/Y332G mutant mouse BChE (protein)
chain: EEDFIITTKTGRVRGLSMPVLGGTVTAFLGIPYAQPPLGSLRFKKPQPLNKWPDIHNATQYANSCYQNIDQAFPGFQGSEMWNPNTNLSEDCLYLNVWIPVPKPKNATVMVWIYGGGFQTGTSSLPVYDGKFLARVERVIVVSMNYRVGALGFLAFPGNPDAPGNMGLFDQQLALQWVQRNIAAFGGNPKSITIFGESSGAASVSLHLLCPQSYPLFTRAILESGSANAPWAVKHPEEARNRTLTLAKFTGCSKENEMEMIKCLRSKDPQEILRNERFVLPSDSILGINFGPTVDGDFLTDMPHTLLQLGKVKKAQILVGVNKDEGTWFLVGGAPGFSKDNDSLITRKEFQEGLNMYFPGVSRLGKEAVLFYYVDWLGEQSPEVYRDALDDVIGDYNIICPALEFTKKFAELENNAFFYFFEHRSSKLPWPEWMGVMHGYEIEFVFGLPLGRRVNYTRAEEIFSRSIMKTWANFAKYGHPNGTQGNSTMWPVFTSTEQKYLTLNTEKSKIYSKLRAPQCQFWRLFFPKVLEMTGDIDETEQEWKAGFHRWSNYMMDWQNQFNDYTSKKESCTAL
With B1 the “ghrelin hydrolyzing activity in vitro (human ghrelin immunoassay kit: decrease in acyl ghrelin, increase in deacyl ghrelin)” value was “exhibited enhanced activity (e.g., at least 20-fold more activity), comparable to that of wild type mouse BChE”.

B2: purified human butyrylcholinesterase (wild-type human BChE) (protein)
chain: EDDIIIATKNGKVRGMNLTVFGGTVTAFLGIPYAQPPLGRLRFKKPQSLTKWSDIWNATKYANSCCQNIDQSFPGFHGSEMWNPNTDLSEDCLYLNVWIPAPKPKNATVLIWIYGGGFQTGTSSLHVYDGKFLARVERVIVVSMNYRVGALGFLALPGNPEAPGNMGLFDQQLALQWVQKNIAAFGGNPKSVTLFGESAGAASVSLHLLSPGSHSLFTRAILQSGSFNAPWAVTSLYEARNRTLNLAKLTGCSRENETEIIKCLRNKDPQEILLNEAFVVPYGTPLSVNFGPTVDGDFLTDMPDILLELGQFKKTQILVGVNKDEGTAFLVYGAPGFSKDNNSIITRKEFQEGLKIFFPGVSEFGKESILFHYTDWVDDQRPENYREALGDVVGDYNFICPALEFTKKFSEWGNNAFFYYFEHRSSKLPWPEWMGVMHGYEIEFVFGLPLERRDNYTKAEEILSRSIVKRWANFAKYGNPNETQNNSTSWPVFKSTEQKYLTLNTESTRIMTKLRAQQCRFWTSFFPKVLEMTGNIDEAEWEWKAGFHRWNNYMMDWKNQFNDYTSKKESCVGL
For B2, the “hydrolysis (deacylation) of acyl ghrelin in vitro; residual acyl ghrelin and desacyl ghrelin by immunoassay” value was “Incubation of a sample containing acyl ghrelin with increasing amounts of human BChE resulted in a decrease in the amount of acyl ghrelin and an increase in the amount of the breakdown product, desacyl ghrelin” and the “time course of acyl ghrelin hydrolysis in vitro” value was “A linear hydrolysis rate was observed”.

B3: A199S/F227A/S287G/A328W/Y332G mutant human BChE (protein)
chain: B2 chain with A199S, F227A, S287G, A328W, Y332G
In the case of B3, the “ghrelin hydrolyzing activity in vitro (human ghrelin immunoassay kit: decrease in acyl ghrelin, increase in deacyl ghrelin)” value is reported as “exhibited modest activity, comparable to that of wild type human BChE”.
